Patent US8980955, “Small molecule inhibitors of replication protein A that also act synergistically with cisplatin” (Indiana University Research and Technology)

Assays:
EcSSB = EcSSB (Escherichia coli, UniProt P0AGE0 P0AGE0:2-178); assay: EMSA; 25 nM DNA, 3.3 nM SSB tetramer, 20 mM HEPES pH 7.5, 100 mM NaCl; unaffected by CheSS19, MCI13E, MCI13F; conditions: tags: Enzymatics, Beverly MA; chain copies: 4 stated; label: 5'-32P
Procedure: Referring now to FIG. 6B. CheSS19 titration in EcSSB DNA-binding reactions. CheSS19 (0, 25, 50, 100, and 200 μM) was pre-incubated with EcSSB and binding reactions were carried out. Referring now to FIG. 6C. Titration of MCI13E and MCI13F in EcSSB DNA-binding reactions. Concentrations of MCI13E/F used were: 0, 25, 50, 100, and 200 μM. In all panels, the 'Free' ssDNA is indicated with an arrow and the 'Bound' ssDNA is indicated by brackets. All reactions were performed in the same order and manner as the RPA binding reactions. EcSSB binding was unaffected by CheSS19 and the MCI13E and MCI13F compounds (FIGS. 6A and B).
EMSAs were performed similarly to those for the RPA constructs, with the following exceptions. Reactions contained 25 nM of 5'-[^32P]-labeled 3Pc3 ssDNA and 3.3 nM (assuming homotetramer formation) SSB protein (Enzymatics, Beverly, Mass.). Reactions (20 μL) were carried out in 20 mM HEPES, pH 7.5, 1 mM DTT, 0.01% NP-40, 100 mM NaCl, and resolved by 6% native polyacrylamide gel electrophoresis at 25 mA for 2 hours. Gels were dried and quantified via phosphorimager analysis and ImageQuant software (Molecular Dynamics).

[1] = biological target: T1, RPA heterotrimer (p70/p34/p14, full-length) (Homo sapiens, UniProt P27694;P15927;P35244 P27694:1-616,P15927:1-270,P35244:1-121); assay: EMSA; 12.5 nM DNA; binding inhibited by MCI13E, MCI13F and CheSS19; conditions: tags: untagged; label: 5'-32P
[2] = biological target: T1, RPA heterotrimer (p70/p34/p14, …); assay: EMSA; inhibited irreversibly by MCI13E; conditions: tags: untagged; label: 5'-32P
Procedure: Considering the differential inhibition observed between the anhydride and halo esters with respect to specificity, experiments were carried out to determine if the isoborneol halo-esters inhibited full-length RPA in an irreversible fashion. Full-length RPA was mixed with MCI13E or vehicle control and the reaction mixtures were then dialyzed overnight. Referring now to FIG. 5. Gel showing irreversible inactivation of full-length heterotrimeric RPA by MCI13E. Incubation of RPA with MCI13E, dialysis and recovery was performed as described for FIG. 3. DNA binding activity of the resulting protein was assessed by EMSA using a 5'-[^32P]-ss 34-base DNA as described in "Methods". Lanes 1-4 pre-dialysis, lanes 5 and 6 post dialysis. […] In fact, the degree of inhibition was similar to that observed for the MCI13E treated RPA before dialysis (FIG. 5 lanes 3 and 4). […] This activity is consistent with MCI13E and F and their reaction with RPA serving as a pharmacodynamic marker of RPA inhibition or as a biomarker for RPA expression and activity.

RPA p70 DBD-A/B [3] = biological target: T2, RPA p70 DBD-A/B (Homo sapiens, UniProt P27694 P27694:181-422); assay: EMSA; not inhibited by MCI13E or MCI13F; conditions: tags: His (pET15b, nickel-NTA purified); label: 5'-32P
T2 chain: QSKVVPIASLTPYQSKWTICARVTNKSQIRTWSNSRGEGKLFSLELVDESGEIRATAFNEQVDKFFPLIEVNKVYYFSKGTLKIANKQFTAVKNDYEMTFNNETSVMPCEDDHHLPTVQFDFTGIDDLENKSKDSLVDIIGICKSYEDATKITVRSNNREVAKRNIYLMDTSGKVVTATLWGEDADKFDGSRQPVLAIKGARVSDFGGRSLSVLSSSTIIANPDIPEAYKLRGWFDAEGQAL

RPA p70 DBD-A/B [4] = biological target: T2, RPA p70 DBD-A/B; assay: FP; 20 nM DNA; 10 mM HEPES pH 7.2, 100 mM NaCl; inhibited irreversibly by CheSS19; conditions: tags: His (pET15b, nickel-NTA purified); label: fluorescein (F)
Procedure: In an experiment reported herein, DBD-A/B was incubated with CheSS 19 and then the reaction mix dialyzed overnight to remove dissociable inhibitor.
Referring now to FIG. 3D. Bar graph showing results of fluorescence polarization analysis of CheSS19 inactivated RPA DBD-A/B. Referring now to FIG. 3D, RPA DBD-A/B was pre-incubated with vehicle (1% DMSO) or CheSS19 (1pmol in 1% DMSO) for 30 minutes at 37° C. Following incubation, the reaction mix was dialyzed versus H1 buffer overnight at 4° C. The protein was recovered and DNA binding activity measured by FP analysis of binding to an F-dT12 substrate was performed as described in "Methods". Bar 1, DNA control, Bar 2, control vehicle treated DBD-A/B, Bar 3, Chess19 treated DBD-A/B. The data represent the mean and range of two independent experiments.
Fluorescence polarization experiments were preformed as previously described (21). SMIs were diluted in H1 buffer (10 mM HEPES, pH 7.2, 1 mM DTT, 0.01% NP-40 and 100 mM NaCl) and the final DMSO concentration was kept below 1%.

T1 sequence (P27694 whole entry, chain 1 of 3): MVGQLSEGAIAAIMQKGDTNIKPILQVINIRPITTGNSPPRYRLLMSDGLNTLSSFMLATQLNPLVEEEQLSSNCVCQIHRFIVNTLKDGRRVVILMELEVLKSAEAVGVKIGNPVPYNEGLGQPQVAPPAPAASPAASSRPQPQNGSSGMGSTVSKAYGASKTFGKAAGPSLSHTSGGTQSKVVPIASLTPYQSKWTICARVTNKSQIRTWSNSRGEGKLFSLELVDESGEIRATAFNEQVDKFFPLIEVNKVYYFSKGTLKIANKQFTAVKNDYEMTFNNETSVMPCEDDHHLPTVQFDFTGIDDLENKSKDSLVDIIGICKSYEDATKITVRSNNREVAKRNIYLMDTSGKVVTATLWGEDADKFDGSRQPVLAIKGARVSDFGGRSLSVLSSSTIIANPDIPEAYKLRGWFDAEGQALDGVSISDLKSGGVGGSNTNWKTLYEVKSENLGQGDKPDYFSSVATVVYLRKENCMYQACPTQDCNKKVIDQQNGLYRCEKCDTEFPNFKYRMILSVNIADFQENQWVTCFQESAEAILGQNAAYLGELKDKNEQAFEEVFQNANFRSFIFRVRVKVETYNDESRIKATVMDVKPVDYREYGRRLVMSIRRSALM
T1 sequence (P15927 whole entry, chain 2 of 3): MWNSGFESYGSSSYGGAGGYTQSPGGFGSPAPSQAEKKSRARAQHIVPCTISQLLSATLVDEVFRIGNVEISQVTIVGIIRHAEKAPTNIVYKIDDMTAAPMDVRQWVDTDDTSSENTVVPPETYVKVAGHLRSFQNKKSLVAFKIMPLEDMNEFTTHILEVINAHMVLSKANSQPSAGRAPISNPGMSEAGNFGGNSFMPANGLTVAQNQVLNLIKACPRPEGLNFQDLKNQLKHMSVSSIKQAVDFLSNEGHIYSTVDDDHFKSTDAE
T1 sequence (P35244 whole entry, chain 3 of 3): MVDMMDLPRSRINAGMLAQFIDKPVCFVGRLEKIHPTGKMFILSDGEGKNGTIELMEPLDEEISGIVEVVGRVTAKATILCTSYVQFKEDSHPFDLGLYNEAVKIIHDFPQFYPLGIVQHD
Chain of EcSSB (P0AGE0 2-178, one chain of several): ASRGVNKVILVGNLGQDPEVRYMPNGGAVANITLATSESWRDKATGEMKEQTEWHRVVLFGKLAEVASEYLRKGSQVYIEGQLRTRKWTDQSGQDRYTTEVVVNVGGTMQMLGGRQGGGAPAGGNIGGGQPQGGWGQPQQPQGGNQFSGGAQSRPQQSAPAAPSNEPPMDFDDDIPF

GGAGACCGAAGAGGAAAAGAAGGAGAGAGG (ssDNA) [3Pc3 30-mer]: binds (EcSSB); binds [1].

CTAGAAAGGGGGAAGAAAGGGAAGAGGCCAGAGA (ssDNA) [34-mer]: binds [2].

TTTTTTTTTTTT (ssDNA) [dT12]: binds (RPA p70 DBD-A/B [3]).

TTTTTTTTTTTT (ssDNA) [F-dT12]: binds (RPA p70 DBD-A/B [4]).
